The values below come from patent US20240165226A1, “COMBINATION TREATMENT OF CD38-EXPRESSING TUMORS” (GENMAB A/S, priority 2006, published 2024).

For test [1], the system named is plasma cells in implanted synovial tissue. As to the kind of experiment: RA-SCID mouse model, synovial tissue xenografts. The settings on record: 12 mg/kg i.v. day 8, day 14. It counts as in vivo, SCID-mice. From the text:
SCID-mice, strain C.B.-17/lcrCrl-SCID-bg, male/female, 4-12 weeks, purchased from Charles River Laboratories Nederland (Maastricht, the Netherlands) were kept in IVC cages under standard conditions of temperature and light, and were fed laboratory chow and water ad libitum. Prior to implantation, mice (three mice in each experimental group, day 0) were anesthetized by intraperitoneal injection of ketamine (NIMATEK, EuroVet) and xylazine (Rompun, Bayer) at ratio 1:1. A small incision of the skin was made using surgical scissors. […] On day 1 of the experiment, remaining synovial tissue was analyzed in order to check for B cells in the inflamed synovial transplants. -005 (12 mg/kg) or control antibody (anti-KLH, 30 mg/kg) was injected (i.v.), in a volume of 200 μl on day 8 of the experiment. […]
Scoring of stained synovial tissue xenografts was performed in a blinded fashion by two trained persons. […] The staining intensity in the other sections was then scored on a scale of 0 to 8, relative to the reference section.
Scoring of staining intensity was analyzed by Kruskal-Wallis one-way ANOVA followed by Dunn's multiple comparison test using Graph Pad Prism version 4.01 (Graph Pad software, Inc., San Diego, CA, USA).

Test [2] deals with T1, wt human CD38 (Homo sapiens, UniProt P28907).
T1 construct: The extracellular domain of human CD38 was amplified from plasmid pCIpuroCD38; signal peptide SPHMM (N); made in house; host or cells: Freestyle 293-F (HEK-293F), transient; culture supernatant used
Briefly: ELISA binding to wild type HA-CD38. As to the method:
Freestyle™ 293-F (a HEK-293 subclone adapted to suspension growth and chemically defined Freestyle medium, (HEK-293F)) cells were obtained from Invitrogen and transfected with pEE13.4HACD38 and with the three constructs carrying the mutations T237A, Q272R and S274F, according to the manufacturer's protocol using 293fectin (Invitrogen). Culture supernatants of transfected cells were used in ELISA for anti-CD38 binding studies.
Culture supernatants of transfected HEK293F cells were diluted, applied to the ELISA plates and incubated for 1 hr at RT. After washing, serial dilutions of HuMabs -003 and -005 were added and incubated for 1 hr at RT. Bound antibodies were detected with HRP-conjugated goat-anti-human IgG antibodies. The assay was developed with ABTS (Roche, #1112597) and the absorbance was measured at 405 nm using a spectrophotometer.
A general note: In an ELISA, binding on a coated surface is turned into a signal by an enzyme label.

Test [3] has as its target T2, HA-tagged CD38 (Homo sapiens, UniProt P28907).
T2 construct: The extracellular domain of human CD38 was amplified from plasmid pCIpuroCD38; made in house
Briefly: Surface plasmon resonance (Biacore 3000). In kind it is binding. The settings on record: 25° C., mean of 3 experiments±SD. As to the method: Binding of -003 and -005 to CD38 was tested using surface plasmon resonance. Briefly, purified antibodies were immobilized on a CM-5 sensor chip (Biacore, Uppsala, Sweden) via anime coupling. HA-tagged CD38 (see Example 3) was flowed over, and the binding of antigen to mAb was detected by a change in refractive index at the surface of the chip using a Biacore 3000 (Biacore).
On the technique in general: Surface plasmon resonance follows binding to a sensor surface in real time, without labels.

Test [4] concerns EBV transformed chimpanzee B cells. As to the kind of experiment: Binding to EBV transformed chimpanzee B cells by flow cytometry. The settings on record: FITC-labeled antibody. As to the method: After harvesting and counting, EBV transformed chimpanzee B cells (received from Biomedical Primate Research Centre, Department Immunobiology, Rijswijk, The Netherlands) were resuspended (1×10^6 cells/ml) in PBS-BSA (PBS supplemented with 0.1% BSA and 0.02% Na-azide). Then, cells were put in 96-well V-bottom plates (100 μl/well) and washed twice in PBS-BSA. Thereafter, 50 μl FITC-labeled -005 antibody solution in PBS-BSA was added to the cells (4° C., 30 min). Cells were washed three times and specific binding of -005 to EBV transformed chimpanzee B cells was detected by flow cytometry. FITC labeled HuMab-KLH (a human monoclonal antibody against KLH (keyhole limpet haemocyanin) generated by Genmab B.V., Utrecht, The Netherlands by use of the immunization protocols described elsewhere herein) was used as a control.
A general note: In flow cytometry, cells or beads pass a laser one at a time.

In general, Kd refers to a measure of binding affinity in units of concentration. A higher Kd goes with lower affinity. Consider “-005: human monoclonal IgG1 anti-CD38 antibody, VL region SEQ ID No:12 and VH region SEQ ID No:17”, for which, in test [1], the “numbers of anti-CD38-positive plasma cells in xenografts” value is reported as “reduced” and the “numbers of plasma cells (anti-CD138 staining) in xenografts” value is listed as “reduced numbers of plasma cells”. Besides, the “binding to wt human CD38” value in test [2] was “bind”. Moreover, in test [3], the KA came out at 1.7e+08 ± 3.68e+07 M⁻¹, binding was put at a Kd of 6.06 nM, the ka was 88800 ± 19500 M⁻¹ s⁻¹ and the kd came to 0.000522 ± 1.16e-05 s⁻¹. Besides, the “binding to EBV transformed chimpanzee B cells” value in test [4] is reported as “dose dependent binding”.
